Test results taken from PMC4041322, “Differences in the intrinsic immunogenicity and allergenicity of Bet v 1 and related food allergens revealed by site-directed mutagenesis” (Allergy, 2013).

Legend:
[1] = SEC; high-performance size-exclusion chromatography (HPSEC) of the purified recombinant proteins; fractions of monomers, dimers, tri-/tetramers and high MW aggregates; details in the online Supporting Information
rMal d 1.0108 (apple) = assay: as above
rCor a 1.0401 (hazelnut) = assay: as above
[2] = molecular target: the molecule itself; assay: as above

| Molecule | percent high MW aggregates [1] | percent monomers [2] | other results |
| --- | --- | --- | --- |
| Mal d 1 C107S | <0.5% | – | – |
| rMal d 1.0108 (natural protein) | – | – | percent dimers (rMal d 1.0108 (apple)): 34%; percent monomers (rMal d 1.0108 (apple)): 56%; percent tri-/tetramers (rMal d 1.0108 (apple)): 8% |
| rCor a 1.0401 | 9% | – | – |
| rMal d 1.0108 | 2% | – | – |
| rCor a 1.0401 (natural protein) | – | – | percent dimers (rCor a 1.0401 (hazelnut)): 28%; percent monomers (rCor a 1.0401 (hazelnut)): 45%; percent tri-/tetramers (rCor a 1.0401 (hazelnut)): 18% |
| Cor a 1 C4,82,160S (natural protein) GVFSYEDEATSVIPPARLFKSFVLDADNLIPKVAPQHFTSAENLEGNGGPGTIKKITFAEGNEFKYMKHKVEEIDHANFKYSYSIIEGGPLGHTLEKISYEIKMAAAPHGGGSILKITSKYHTKGNASINEEEIKAGKEKAAGLFKAVEAYLLAHPDAYS | – | 93% | – |
| Cor a 1 C4,82,160S, L115K (natural protein) GVFSYEDEATSVIPPARLFKSFVLDADNLIPKVAPQHFTSAENLEGNGGPGTIKKITFAEGNEFKYMKHKVEEIDHANFKYSYSIIEGGPLGHTLEKISYEIKMAAAPHGGGSIKKITSKYHTKGNASINEEEIKAGKEKAAGLFKAVEAYLLAHPDAYS | – | > 99% | – |
| Mal d 1 C107S, I113K (natural protein) GVYTFENEFTSEIPPSRLFKAFVLDADNLIPKIAPQAIKQAEILEGNGGPGTIKKITFGEGSQYGYVKHRIDSIDEASYSYSYTLIEGDALTDTIEKISYETKLVASGSGSTKKSISHYHTKGNIEIKEEHVKAGKEKAHGLFKLIESYLKDHPDAYN | – | > 99% | – |
| Mal d 1 C107S (natural protein) GVYTFENEFTSEIPPSRLFKAFVLDADNLIPKIAPQAIKQAEILEGNGGPGTIKKITFGEGSQYGYVKHRIDSIDEASYSYSYTLIEGDALTDTIEKISYETKLVASGSGSTIKSISHYHTKGNIEIKEEHVKAGKEKAHGLFKLIESYLKDHPDAYN | – | > 98% | – |
